Results from patent publication US20070178082A1 (Ablynx, published 2007).

What was measured:
mouse serum albumin = target: T1, mouse serum albumin (mouse, UniProt P07724 25-608); experiment: BIACORE, mouse albumin immobilised on CM5 chip
T1 construct: also called MSA; mouse albumin

rabbit serum albumin = rabbit serum albumin (rabbit, UniProt P49065 25-608); experiment: Blot: phage displaying the nanobody on plasma (1/10) separated by SDS-PAGE and blotted on nitrocellulose, anti-M13-HRP [panel MSA 24]
rabbit serum albumin, sequence (P49065 25-608 limits assumed): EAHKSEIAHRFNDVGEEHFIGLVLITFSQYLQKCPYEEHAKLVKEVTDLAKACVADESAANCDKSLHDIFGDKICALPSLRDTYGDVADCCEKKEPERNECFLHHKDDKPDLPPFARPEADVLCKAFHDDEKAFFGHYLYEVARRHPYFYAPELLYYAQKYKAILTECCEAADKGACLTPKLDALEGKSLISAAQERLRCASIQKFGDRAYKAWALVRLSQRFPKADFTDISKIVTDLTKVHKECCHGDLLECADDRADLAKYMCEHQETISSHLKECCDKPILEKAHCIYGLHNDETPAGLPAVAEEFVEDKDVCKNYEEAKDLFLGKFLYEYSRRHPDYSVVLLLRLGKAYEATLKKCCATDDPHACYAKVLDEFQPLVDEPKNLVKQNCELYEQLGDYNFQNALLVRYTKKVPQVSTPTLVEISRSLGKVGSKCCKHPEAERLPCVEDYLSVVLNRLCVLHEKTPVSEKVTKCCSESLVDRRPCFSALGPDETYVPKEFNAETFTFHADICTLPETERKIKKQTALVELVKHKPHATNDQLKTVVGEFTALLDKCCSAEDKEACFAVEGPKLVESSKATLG

T1 sequence (P07724 25-608 limits assumed): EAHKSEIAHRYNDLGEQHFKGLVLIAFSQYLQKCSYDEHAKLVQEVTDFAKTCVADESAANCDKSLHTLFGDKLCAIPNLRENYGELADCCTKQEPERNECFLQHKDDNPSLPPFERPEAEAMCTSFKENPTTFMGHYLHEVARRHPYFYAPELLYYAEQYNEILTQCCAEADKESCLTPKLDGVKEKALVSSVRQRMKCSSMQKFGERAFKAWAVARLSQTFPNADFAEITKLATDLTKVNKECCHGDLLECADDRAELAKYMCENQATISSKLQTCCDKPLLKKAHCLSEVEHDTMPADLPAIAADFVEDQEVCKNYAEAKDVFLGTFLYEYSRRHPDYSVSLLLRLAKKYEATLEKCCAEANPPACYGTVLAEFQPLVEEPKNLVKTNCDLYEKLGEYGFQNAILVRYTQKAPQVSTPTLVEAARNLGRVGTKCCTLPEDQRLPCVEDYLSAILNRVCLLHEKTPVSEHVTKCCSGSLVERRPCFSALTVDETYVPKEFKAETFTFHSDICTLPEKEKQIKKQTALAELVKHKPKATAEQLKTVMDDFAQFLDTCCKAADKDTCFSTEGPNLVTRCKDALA

Kd (mouse serum albumin): 28 nM
koff (mouse serum albumin): 0.018 s⁻¹
kon (mouse serum albumin): 640000 M⁻¹ s⁻¹
binding result (rabbit serum albumin): no binding
B1: MSA24 (VHH)
VHH: QVQLQESGGGLVQPGNSLRLSCAASGFTFRNFGMSWVRQAPGKEPEWVSSISGSGSNTIYADSVKDRFTISRDNAKSTLYLQMNSLKPEDTAVYYCTIGGSLSRSSQGTQVTVSS
notes: Llama VHH selected on mouse serum albumin
